Bridges are numbered along the chain shown (N, C = ends). Where no end group is shown, it is not given here. Some results are limits rather than exact numbers.

Among the data in patent US20080032340A1 (UNIVERSITY OF ARIZONA, published 2008) are Kd values, retold here.

The target in one test is T1, streptavidin (UniProt P22629 37-163, limits assumed).
T1 construct: Bought from Pierce; Used free in solution in the HABA assay and immobilized on agarose resin in the fusion protein experiments; also called agarose immobilized streptavidin
Briefly: HABA competition, 50 µM HABA-streptavidin complex, absorbance at 500 nm. As to the method: (§1) FIG. 1: Competitive ligand binding analysis of […] Error bars indicate the standard deviation of three separate assays.
After 60 minutes, the absorbance of the complex was monitored at 500 nm. To calculate the IC₅₀s of the selected peptides, the average of three separate trials were fitted to the Hill equation, […]

A further test deals with T2, avidin (hen egg white (chicken), UniProt P02701 25-152, glycosylated native state).
T2 construct: Bought from Pierce; also called glycosylated parent of NeutrAvidin
Description: HABA competition, 50 µM HABA-avidin complex, absorbance at 500 nm, IC50 converted by Cheng-Prusoff. How it is done: (§2) After 60 minutes, the absorbance of the complex was monitored at 500 nm. To calculate the IC₅₀s of the selected peptides, the average of three separate trials were fitted to the Hill equation,
(§3) Best fit equations were calculated using KaleidaGraph (Synergy Software).

Test [1] deals with T3, NeutrAvidin (UniProt P02701 25-152, chemically deglycosylated and chemically modified to a more neutral isoelectric point (pI=6.3)).
T3 construct: Bought from Pierce; also called NA; deglycosylated avidin
Briefly: HABA competition, 50 µM HABA-NeutrAvidin complex, absorbance at 500 nm, IC50 converted by Cheng-Prusoff. How it is done:
as §2, §3

For test [2], the target named is T3, NeutrAvidin. Description: HABA competition, uncyclized peptides (the filing cites 'FIG. 3B'; FIG. 1B holds these curves). How it is done: as §1, §2, §3

B1: cyclized CDLASPWCG (SEQ ID NO: 5) (peptide)
peptide: CDLASPWCG-NH2
modifications: disulfide 1-8; N-terminus assumed
SMILES: CC(C)C[C@@H]1NC(=O)[C@H](CC(=O)O)NC(=O)[C@@H](N)CSSC[C@@H](C(=O)NCC(N)=O)NC(=O)[C@H](Cc2c[nH]c3ccccc23)NC(=O)[C@@H]2CCCN2C(=O)[C@H](CO)NC(=O)[C@H](C)NC1=O
notes: Synthetic peptide from Fmoc synthesis on RinkAmide resin, oxidised in PBS with 10% DMSO; also called cyclic DLASPW peptide
As for B1, the Kd with streptavidin was greater than 5000 µM; in the test with avidin, 46.2 µM; with NeutrAvidin [1], 62.8 µM.

B2: uncyclized CDRASPYCG (SEQ ID NO: 7) (peptide)
peptide: CDRASPYCG-NH2
modifications: cysteine pairing not given here
notes: Same peptide as m1, used as the linear form; also called linear DRASPY peptide; acyclic counterpart
In the case of B2, the Kd in the test with NeutrAvidin [2] was less than 500 µM.

B3: cyclized CDRASPYCG (SEQ ID NO: 7) (peptide)
peptide: CDRASPYCG-NH2
modifications: disulfide 1-8; N-terminus assumed
SMILES: C[C@@H]1NC(=O)[C@H](CCCNC(=N)N)NC(=O)[C@H](CC(=O)O)NC(=O)[C@@H](N)CSSC[C@@H](C(=O)NCC(N)=O)NC(=O)[C@H](Cc2ccc(O)cc2)NC(=O)[C@@H]2CCCN2C(=O)[C@H](CO)NC1=O
notes: Synthetic peptide from Fmoc synthesis on RinkAmide resin, oxidised in PBS with 10% DMSO; also called cyclic DRASPY peptide
Turning to B3, the Kd with streptavidin was greater than 5000 µM; with avidin it was 44.9 µM; in the test with NeutrAvidin [1], 31.5 µM.

B4: uncyclized CDRATPYCG (SEQ ID NO: 9) (peptide)
peptide: CDRATPYCG-NH2
modifications: cysteine pairing not given here
notes: Same peptide as m2, used as the linear form; also called linear DRATPY peptide; acyclic counterpart
With B4, the Kd in the test with NeutrAvidin [2] is less than 500 µM.

B5: cyclized CDRATPYCG (SEQ ID NO: 9) (peptide)
peptide: CDRATPYCG-NH2
modifications: disulfide 1-8; N-terminus assumed
SMILES: C[C@@H]1NC(=O)[C@H](CCCNC(=N)N)NC(=O)[C@H](CC(=O)O)NC(=O)[C@@H](N)CSSC[C@@H](C(=O)NCC(N)=O)NC(=O)[C@H](Cc2ccc(O)cc2)NC(=O)[C@@H]2CCCN2C(=O)[C@H]([C@@H](C)O)NC1=O
notes: Synthetic peptide from Fmoc synthesis on RinkAmide resin, oxidised in PBS with 10% DMSO; also called cyclic DRATPY peptide
In the case of B5, the Kd with streptavidin was greater than 5000 µM; with avidin, 28.1 µM; with NeutrAvidin [1], 12.5 µM.
